Values of other authors as cited in article PMC8526019.
pKd: −log10 of the molar value. Blank lines part the entries; values can stand above or below the substance they belong to.

Tests used:
ATG3 (Homo sapiens) = ATG3 (Homo sapiens) (UniProt Q9NT62)
[1] = biological target: Atg7 (Saccharomyces cerevisiae) (UniProt P38862)
[2] = biological target: E-cadherin (Homo sapiens) (UniProt P12830)
ATG14 (Homo sapiens) = ATG14 (Homo sapiens) (UniProt Q6ZNE5)
Sequence of UniProt Q6ZNE5 (Q6ZNE5 whole entry): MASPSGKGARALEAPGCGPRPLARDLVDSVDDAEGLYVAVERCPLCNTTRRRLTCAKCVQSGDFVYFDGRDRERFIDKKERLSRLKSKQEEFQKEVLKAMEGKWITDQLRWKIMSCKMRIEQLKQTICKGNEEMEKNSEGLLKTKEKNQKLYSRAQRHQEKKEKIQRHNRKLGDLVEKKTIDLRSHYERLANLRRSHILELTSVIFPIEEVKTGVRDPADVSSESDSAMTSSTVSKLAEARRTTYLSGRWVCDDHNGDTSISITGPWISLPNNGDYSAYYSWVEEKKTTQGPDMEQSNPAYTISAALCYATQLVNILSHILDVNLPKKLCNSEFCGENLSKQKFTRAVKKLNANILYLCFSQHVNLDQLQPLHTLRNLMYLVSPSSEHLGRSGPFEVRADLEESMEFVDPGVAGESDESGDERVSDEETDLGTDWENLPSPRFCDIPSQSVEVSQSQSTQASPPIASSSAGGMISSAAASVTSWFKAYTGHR

Sequence of UniProt Q9NT62 (Q9NT62 whole entry): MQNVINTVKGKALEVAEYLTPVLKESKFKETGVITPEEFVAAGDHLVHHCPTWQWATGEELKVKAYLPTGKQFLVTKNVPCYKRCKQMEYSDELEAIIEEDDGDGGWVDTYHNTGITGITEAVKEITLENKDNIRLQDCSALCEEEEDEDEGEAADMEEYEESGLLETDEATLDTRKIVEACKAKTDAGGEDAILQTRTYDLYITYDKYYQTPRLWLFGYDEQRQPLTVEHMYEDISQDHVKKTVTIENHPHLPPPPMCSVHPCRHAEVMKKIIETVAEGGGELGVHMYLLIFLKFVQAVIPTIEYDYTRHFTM

pKd (ATG3 (Homo sapiens)): 7.30
Substance: ATG12 (from UniProt O94817)

Substance: Atg7 (from UniProt P38862)
pKd [1]: 9.00

pKd [2]: 3.80
Substance: E-cadherin (from UniProt P12830)

pKd (ATG14 (Homo sapiens)): 5.49
Substance: BECN1 (from UniProt Q14457)
